Where “and” joins values, the source holds several entries; their conditions need not be identical. Identical values can stand only once.
How the values were obtained:
[1] = target: DEspR on activated neutrophils (species of the neutrophils not stated for FIG. 6 / FIG. 17C); experiment: cell-based or functional assay
[2] = target: T1, human DEspR (dual endothelin/VEGF signal peptide receptor) (human) (UniProt B0L3A2); experiment: binding to DEspR on intact human cells, triplicate
T1 sequence: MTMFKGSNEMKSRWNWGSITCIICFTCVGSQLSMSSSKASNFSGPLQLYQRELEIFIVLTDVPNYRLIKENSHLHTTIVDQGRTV

EC50 [2]: 0.178 µM
B1: 6g8 mumab, murine anti-DEspR monoclonal antibody (pan-species reactive anti-Human/Rat/Monkey DEspR mAb), precursor of hu-6g8 (antibody, from a related filing, V domains shown)
VH: EVQLQESGGGLVQPGGSLKLSCAASGFDFSRYWMSWVRQAPGKGLEWIGEINPDSSTINYTPSLKDKFIISRDTAKKTLYLQMSKVRSEDTALYYCARHGRGMDYWSQGTSVTVSS
VL: DIVLTQTNQIMSASVGDRVSVTCKASQNVDSNVAWYQQKPGHSPKALIYSASYRYSRVPDRITGSGSGTDFTLTITNVQSKDLADYFCQQYHSYPLLAFGAGTKLELKR
inhibition of neutrophil (PMN) survival (IC50) [1]: > 0.198 µM
inhibition of survival (IC50), live cells counted by Trypan blue dye exclusion [1]: > 200 nM and > 30 µg/mL
